According to publication PMC6177315 (Biochemistry, 2018):
Read-outs that look alike come from different tables or passages of the source. Where no end group is shown, it is not given here.

B1: eIF5_(196–431) (GH-eIF5-CTD) (domain or fragment, human, UniProt P55010 196-431, looked up)
chain: EEEEDDDWGEDTTEEAQRRRMDEISDHAKVLTLSDDLERTIEERVNILFDFVKKKKEEGVIDSSDKEIVAEAERLDVKAMGPLVLTEVLFNEKIREQIKKYRRHFLRFCHNNKKAQRYLLHGLECVVAMHQAQLISKIPHILKEMYDADLLEEEVIISWSEKASKKYVSKELAKEIRVKAEPFIKWLKEAEEESSGGEEEDEDENIEVVYSKAASVPKVETVKSDNKDDDIDIDAI
B2: human eIF5B_(951–1220), comprising domains 3 and 4 (GH-eIF5B-D34) (domain or fragment, UniProt O60841 951-1220, looked up)
chain: YKEDEIPVLKDELIHELKQTLNAIKLEEKGVYVQASTLGSLEALLEFLKTSEVPYAGINIGPVHKKDVMKASVMLEHDPQYAVILAFDVRIERDAQEMADSLGVRIFSAEIIYHLFDAFTKYRQDYKKQKQEEFKHIAVFPCKIKILPQYIFNSRDPIVMGVTVEAGQVKQGTPMCVPSKNFVDIGIVTSIEINHKQVDVAKKGQEVCVKIEPIPGESPKMFGRHFEATDILVSKISRQSIDALKDWFRDEMQKSDWQLIVELKKVFEII
B3: human eIF5B_(1076–1220), comprising domain 4 (GH-eIF5B-D4) (domain or fragment, UniProt O60841 1076-1220, looked up)
chain: YKKQKQEEFKHIAVFPCKIKILPQYIFNSRDPIVMGVTVEAGQVKQGTPMCVPSKNFVDIGIVTSIEINHKQVDVAKKGQEVCVKIEPIPGESPKMFGRHFEATDILVSKISRQSIDALKDWFRDEMQKSDWQLIVELKKVFEII

How the values were obtained:
Assay in all cases: fluorescence polarisation
[1] = molecular target: B2
[2] = molecular target: B3
[3] = molecular target: B2; remark: listed apart in the source
[4] = molecular target: B3; remark: listed apart in the source
[5] = molecular target: Full-length human eIF5 (GH-eIF5) (human, UniProt P55010 1-431)
[6] = molecular target: B1

Kd [1] [nM] | Kd [2] [nM] | Kd [5] [nM] | Binder | also measured
1200 | 740 | – | DDDIDIDAI (peptide, UniProt P55010 423-431, looked up) [eIF5 fragment comprising the C-terminal 9 residues (eIF5-CT9)] | –
– | – | – | DIDIDAI (peptide, UniProt P55010 425-431, looked up, also: fluorescein label, position not given here) [fluorescein-labeled 7-residue eIF5 C-terminal peptide (Fl-eIF5-CT7)] | Kd [3]: 2400 nM; Kd [4]: 1400 nM
720 | – | – | B1 | –
– | – | 510 | B2 | –
1100 | 500 | – | EEEDEDENIEVVYSKAASVPKVETVKSDNKDDDIDIDAI (peptide, UniProt P55010 393-431, looked up) [eIF5 fragment comprising the C-terminal 39 residues (eIF5-CT39)] | –
– | – | 370 | B3 | Kd [6]: 370 nM
